Measurements published in article PMC2900198.

What was measured:
[1] = target: Grass carp reovirus (GCRV) coat protein VP5 (grass carp reovirus (GCRV)); experiment: cryo-EM structure
[2] = target: Grass carp reovirus (GCRV) turret protein VP1 (grass carp reovirus (GCRV)); experiment: cryo-EM structure

| Substance | stoichiometry N [1] | stoichiometry N [2] |
| --- | --- | --- |
| Grass carp reovirus (GCRV) coat protein VP5 (natural protein) | 3 |  |
| Grass carp reovirus (GCRV) turret protein VP1 (natural protein) |  | 5 |
